Experimental findings from patent US20210113649A1 (UNIVERSITY OF FLORIDA RESEARCH FOUNDATION, published 2021) are described below.

The target in test [1] is T1, DAXX (death domain-associated protein), endogenous (human, UniProt Q9UER7 1-740).
T1 construct: Endogenous protein pulled down with an anti-DAXX mAb or co-precipitated with FLAG-SREBP2; also called endogenous DAXX
In words: IP of MDA-MB-231 or PC3 cell extracts with an anti-DAXX mAb, immunoblot for SREBP2 (M, mature). An excerpt: FIGS. 2A to 2E show DAXX binds to SREBP2. […] MDA-MB-231 or PC3 cell extracts were subjected to IP with a control (IgG) or an anti-DAXX monoclonal antibody. The immunoprecipitated SREBP2 was detected. P, precursor; M, mature SREBP2. FIGS. 2B, 2C, and 2D show there are two independent binding sites in DAXX for mature SREBP2. […] The cell lysates were subjected to FLAG IP. […] HC: IgG heavy chain. *: non-specific band. FIG. 2E is a schematic drawing of DAXX-SREBP2 interactions. The two independent SREBP2-binding sites are depicted. Also shown is the sequence of aa 327-335 within the DAXX HBD critical for the DAXX-SREBP2 interactions. SIM: SUMO-interacting motif; DHB: DAXX helical bundle; HBD: histone-binding domain; PEST: proline, glutamic acid, serine, and threonine-rich sequence. Numbers refer to aa residue positions in the DAXX protein. Note that the irrelevant lanes in the same blots (between the input and IP samples in the PC3 blot in panel A, between lanes 4 and 5, and lanes 12 and 13 in panel B, and between lanes 1 and 2 in panel D) are left out.
Immunoprecipitation (IP) of total cell extracts with anti-DAXX antibody evidenced co-precipitation of two SREBP2 proteins (FIG. 2A) that correspond to the precursor (P) and the mature (M) forms of SREBP2. […]
On the technique in general: Immunoblotting shows a protein as a band on a membrane.

In another test the target is T2, GFP-DAXX S671A (human, UniProt Q9UER7 1-740).
T2 construct: also called S671A mutant; not shown: GFP from the pEGFP-C2 vector
In words: anti-FLAG IP of 293T cells cotransfected with GFP-DAXX constructs and FLAG-SREBP2 (FIG. 6A). From the text: (§1) FIGS. 6A to 6H show mutation of DAXX phosphorylation sites disrupts DAXX-SREBP2 interaction, impairs lipogenesis and tumor growth. […] The GFP-wt DAXX was transfected alone in the absence of FLAG-SREBP2 as a control (lane 7). The lysates of transfected cells were subjected to IP with an anti-FLAG antibody, Both DAXX and FLAG-SREBP2 were detected in immunoprecipitates and input lysates. […] The precipitated DNAs were subjected to qPCR with primers specific to promoter regions of the indicated genes. qPCRs for the 3′ UTR of the FASN and ACACA genes serve as negative control. […] ATRX qRT-PCR serves as a control for genes not regulated by SREBPs. […] Cells were serum-starved for 24 h. DMSO or a mTOR inhibitor (0.1 μM final concentration) was added for 5 h before cell lysis. […] RNAs were isolated from cells cultured in serum-free DMEM for 24 h as in FIG. 6D.

A further test has as its target T3, GFP-DAXX S668A/S671A (human, UniProt Q9UER7 1-740).
T3 construct: also called S668A/S671A mutant; not shown: GFP from the pEGFP-C2 vector
The test is described as above.
From the text: as §1

Another test concerns the target T4, GFP-DAXX S495A (human, UniProt Q9UER7 1-740).
T4 construct: also called S495A mutant; not shown: GFP from the pEGFP-C2 vector
The description is as above.
From the text: as §1

The target in another test is T5, GFP-DAXX S690A (human, UniProt Q9UER7 1-740).
T5 construct: also called S690A mutant; not shown: GFP from the pEGFP-C2 vector
The description is as above.
From the text: as §1

T5 sequence (Q9UER7 whole entry S690A): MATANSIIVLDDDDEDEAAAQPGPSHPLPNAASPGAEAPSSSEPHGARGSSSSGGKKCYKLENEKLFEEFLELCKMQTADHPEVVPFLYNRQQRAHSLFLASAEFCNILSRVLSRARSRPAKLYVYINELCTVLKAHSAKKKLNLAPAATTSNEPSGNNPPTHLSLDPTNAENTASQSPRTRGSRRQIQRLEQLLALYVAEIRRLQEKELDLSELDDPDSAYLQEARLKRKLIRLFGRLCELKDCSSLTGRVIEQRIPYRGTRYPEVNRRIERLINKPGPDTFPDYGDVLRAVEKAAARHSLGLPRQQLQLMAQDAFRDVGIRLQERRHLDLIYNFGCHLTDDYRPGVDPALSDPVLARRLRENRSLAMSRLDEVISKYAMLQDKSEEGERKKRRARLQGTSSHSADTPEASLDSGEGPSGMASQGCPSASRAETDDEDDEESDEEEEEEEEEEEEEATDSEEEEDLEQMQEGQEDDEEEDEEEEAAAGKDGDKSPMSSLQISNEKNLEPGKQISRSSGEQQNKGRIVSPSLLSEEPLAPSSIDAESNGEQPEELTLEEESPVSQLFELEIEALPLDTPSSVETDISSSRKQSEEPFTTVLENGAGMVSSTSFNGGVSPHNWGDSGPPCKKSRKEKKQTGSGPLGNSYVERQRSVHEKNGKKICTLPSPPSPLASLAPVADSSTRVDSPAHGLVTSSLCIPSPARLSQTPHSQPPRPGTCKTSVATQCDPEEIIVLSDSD
T2 sequence (Q9UER7 whole entry S671A): as the sequence (Q9UER7 whole entry S690A) above, with S671A, A690S counted along it
T1 sequence (Q9UER7 whole entry, the tested form may be a part): as the sequence (Q9UER7 whole entry S690A) above, with A690S counted along it
T4 sequence (Q9UER7 whole entry S495A): as the sequence (Q9UER7 whole entry S690A) above, with S495A, A690S counted along it
T3 sequence (Q9UER7 whole entry S668A/S671A): as the sequence (Q9UER7 whole entry S690A) above, with S668A, S671A, A690S counted along it

B1: SREBP2 mature form, endogenous (other, human, UniProt Q12772 1-484, looked up)
chain: MDDSGELGGLETMETLTELGDELTLGDIDEMLQFVSNQVGEFPDLFSEQLCSSFPGSGGSGSSSGSSGSSSSSSNGRGSSSGAVDPSVQRSFTQVTLPSFSPSAASPQAPTLQVKVSPTSVPTTPRATPILQPRPQPQPQPQTQLQQQTVMITPTFSTTPQTRIIQQPLIYQNAATSFQVLQPQVQSLVTSSQVQPVTIQQQVQTVQAQRVLTQTANGTLQTLAPATVQTVAAPQVQQVPVLVQPQIIKTDSLVLTTLKTDGSPVMAAVQNPALTALTTPIQTAALQVPTLVGSSGTILTTMPVMMGQEKVPIKQVPGGVKQLEPPKEGERRTTHNIIEKRYRSSINDKIIELKDLVMGTDAKMHKSGVLRKAIDYIKYLQQVNHKLRQENMVLKLANQKNKLLKGIDLGSLVDNEVDLKIEDFNQNVLLMSPPASDSGSQAGFSPYSIDSEPGSPLLDDAKVKDEPDSPPVALGMVDRSRILL
notes: domain: mature form (N-terminal domain released by cleavage); also called mature SREBP2
Take B1: the binding result in test [1] is on record as “binds”.

B2: FLAG-SREBP2 (mature) (other, UniProt Q12772 1-481, looked up)
chain: MDDSGELGGLETMETLTELGDELTLGDIDEMLQFVSNQVGEFPDLFSEQLCSSFPGSGGSGSSSGSSGSSSSSSNGRGSSSGAVDPSVQRSFTQVTLPSFSPSAASPQAPTLQVKVSPTSVPTTPRATPILQPRPQPQPQPQTQLQQQTVMITPTFSTTPQTRIIQQPLIYQNAATSFQVLQPQVQSLVTSSQVQPVTIQQQVQTVQAQRVLTQTANGTLQTLAPATVQTVAAPQVQQVPVLVQPQIIKTDSLVLTTLKTDGSPVMAAVQNPALTALTTPIQTAALQVPTLVGSSGTILTTMPVMMGQEKVPIKQVPGGVKQLEPPKEGERRTTHNIIEKRYRSSINDKIIELKDLVMGTDAKMHKSGVLRKAIDYIKYLQQVNHKLRQENMVLKLANQKNKLLKGIDLGSLVDNEVDLKIEDFNQNVLLMSPPASDSGSQAGFSPYSIDSEPGSPLLDDAKVKDEPDSPPVALGMVDRSR
notes: domain: mature form; also called mature SREBP2 (Plasmid #26807); not shown: FLAG tag
B2: the binding result with GFP-DAXX S671A, with GFP-DAXX S668A/S671A, with GFP-DAXX S495A and with GFP-DAXX S690A was “no binding” in each case.
